# Patent publication US20200030452A1, “Process for the Manufacture of a Tumor-Vasculature Targeting Antitumor Agent” (priority 2016, published 2020)
# Residues, ends and D or L forms follow the SMILES beside them. *: point of attachment. X1 = CCc1c2c(nc3ccc(OC(=O)[C@H]4CC[C@H](CNC(=O)[C@H]5CC[C@H](CN6C(=O)CC(*)C6=O)CC5)CC4)cc13)-c1cc3c(c(=O)n1C2)COC(=O)[C@]3(O)CC
# Experiments:
# Format in all cases: in vivo
# [1] = test system: tumors; test: Treatment of mice with tumors using IF7-SN38
# Text: (§1) Therefore, using our targeted therapy, a small amount of IF7-SN38 is required to be injected to patients. The efficiency of IF7-SN38 is unprecedented in mice, in particular for the brain malignancies. […] It is believed that IF7-SN38 would work far better than PEGylated SN38 by targeting malignant tumors including brain malignancy. The low dosage, specificity, and easily degrading nature of IF7-SN38 in targeted cells to release SN38, are the major factors for the superiority of our drug to PEG-SN38.
# [2] = test system: human colon HCT116 tumors; test: IF7-SN38 injected intravenously into nude mice carrying human colon HCT116 tumors; details: intravenous, low dosages
# [3] = Crossing of the blood brain barrier; details: by passive transcytosis mechanism
# Text: as §1
smiles,measurement,setting,value
CCc1c2c(nc3ccc(OC(=O)[C@H]4CC[C@H](CNC(=O)[C@H]5CC[C@H](CN6C(=O)CC(SC[C@H](NC(=O)[C@H](CCCNC(=N)N)NC(=O)[C@H](CCC(N)=O)NC(=O)[C@H](Cc7c[nH]c8ccccc78)NC(=O)[C@H](CC(C)C)NC(=O)[C@H](CC(C)C)NC(=O)[C@H](Cc7ccccc7)NC(=O)[C@@H](N)[C@@H](C)CC)C(=O)N[C@@H](CCCNC(=N)N)C(=O)N[C@@H](CCCNC(=N)N)C(=O)O)C6=O)CC5)CC4)cc13)-c1cc3c(c(=O)n1C2)COC(=O)[C@]3(O)CC (stereo partly drawn) [IF7-SN38] (H-IFLLWQRC(X1)RR-OH; N-terminus and C-terminus assumed),side effects in the treated mice,[1],without producing any side effects
same,side effects,[2],no apparent side effects
same,blood brain barrier,[3],overcomes blood brain barrier
